Measured values: US20210309720A1 (MIT, published 2021)

T1: CCL25 (UniProt O15444 24-150)
T1 sequence (looked up): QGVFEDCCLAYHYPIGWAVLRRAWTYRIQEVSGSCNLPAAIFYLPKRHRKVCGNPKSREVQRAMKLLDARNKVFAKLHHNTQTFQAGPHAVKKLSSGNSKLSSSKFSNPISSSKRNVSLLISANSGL

T2: IL8 (UniProt P10145 28-99, limits assumed)
T2 sequence (looked up): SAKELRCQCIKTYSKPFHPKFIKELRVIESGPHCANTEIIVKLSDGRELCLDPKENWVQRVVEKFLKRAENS


Assays:
CCL25 = biological target: T1, CCL25; experiment: MicroScale Thermophoresis, 5 nM NT647-labeled receptor against a gradient of ligand, 25 C
Experimental: (§1) The affinity of QTY modified cytokine receptor fused with Fc of IgG for their respective native ligands was measured using MicroScale Thermophoresis (MST). Changes in thermophoretic movement for labeled proteins upon ligand-binding were recorded and plotted as a function of ligand concentration.
(§2) MicroScale Thermophoresis (MST) is an optical method detecting changes in thermophoretic movement and TRIC of the protein-attached fluorophore upon ligand binding. Active labelled proteins contribute to the thermophoresis signal upon ligand binding. […] Herein ligand binding experiments were carried out with 5 nM NT647-labeled protein in 1×PBS, 10 mM DTT buffer with different concentration of arginine, against a gradient of respective ligands on a Monolith NT.115 pico instrument at 25° C. Synthesized receptors were labeled with Monolith NT™ 2nd generation protein labeling kit RED-NHS (NanoTemper Technologies) so as to obtain unique fluorescent signals. MST time traces were recorded and analyzed to obtain the highest possible signal-to-noise levels and amplitudes, >5 Fnorm units. The recorded fluorescence was plotted against the concentration of ligand, and curve fitting was performed using the Kd fit formula derived from the law of mass action. For clarity, binding graphs of each independent experiment were normalized to the fraction bound (0=unbound, 1=bound). […]

IL8 = biological target: T2, IL8; experiment: as above
Experimental: as §1, §2

Binder	Kd (CCL25)	Kd (IL8)
CCR9-QTY Fc (Fc fusion, labeled with NT647 fluorescent dye (Monolith NT 2nd generation protein labeling kit RED-NHS), also called Fc fusion QTY CCR9 variant receptor protein) MTPTDFTSPIPNMADDYGSESTSSMEDYVNFNFTDFYCEKNNVRQFASHYQPPQYWQTYTTGAQGNSQTTQTYWYCTRVKTMTDMYQQNQATADQQYQTTQPYWATAAADQWKFQTFMCKTTNSMYKMNYYSCTQQTMCTSTDRYTATAQAMRAHTWREKRQQYSKMTCYTTWTQAAAQCTPETQYSQIKEESGIAICTMVYPSDESTKQKSATQTQKTTQGYYQPYTTMACCYTTTTHTQTQAKKSSKHKAQKTTTTTQTTYTQSQYPYNCTQQTQTTDAYAMFISNCATSTNTDTCYQTTQTTAYYHSCQNPTQYTYTGERFRRDLVKTLKNLGCISQAQWVSFTRREGSLKLSSMLLETTSGALSLTETSQVAPAHHHHHHHHHHTETSQVAPAHHHHHHHHHHGSKLVDPRGPTIKPCPPCKCPAPNLLGGPSVFIFPPKIKDVLMISLSPIVTCVVVDVSEDDPDVQISWFVNNVEVHTAQTQTHREDYNSTLRVVSALPIQHQDWMSGKEFKCKVNNKDLPAPIERTISKPKGSVRAPQVYVLPPPEEEMTKKQVTLTCMVTDFMPEDIYVEWTNNGKTELNYKNTEPVLDSDGSYFMYSKLRVEKKNWVERNSYSCSVVHEGLHNHHTTKSFSRTPGK	37.2 nM	–
CXCR2-QTY Fc (Fc fusion, labeled with NT647 fluorescent dye (Monolith NT 2nd generation protein labeling kit RED-NHS), also called Fc fusion QTY CXCR2 variant receptor protein) MEDFNMESDSFEDFWKGEDLSNYSYSSTLPPFLLDAAPCEPESLEINKYYTTTTYAQTYQQSQQGNSQTMQTTQYSRVGRSVTDTYQQNQAQADQQYAQTQPTWAASKVNGWIFGTFLCKTTSQQKETNYYSGTQQQACTSTDRYLAIVHATRTLTQKRYLVKYTCQSTWGQSQQQAQPTQQYRRTVYSSNVSPACYEDMGNNTANWRMQQRTQPQSYGYTQPQQTMQYCYGFTLRTLFKAHMGQKHRAMRTTYATTQTYQQCWQPYNQTQQADTLMRTQVIQETCERRNHIDRAQDATETQGTQHSCQNPQTYAYTGQKFRHGLLKILAIHGLISKDSLPKDSRPSFVGSSSGHTSTTLTETSQVAPAHHHHHHHHHHGSKLVDPRGPTIKPCPPCKCPAPNLLGGPSVFIFPPKIKDVLMISLSPIVTCVVVDVSEDDPDVQISWFVNNVEVHTAQTQTHREDYNSTLRVVSALPIQHQDWMSGKEFKCKVNNKDLPAPIERTISKPKGSVRAPQVYVLPPPEEEMTKKQVTLTCMVTDFMPEDIYVEWTNNGKTELNYKNTEPVLDSDGSYFMYSKLRVEKKNWVERNSYSCSVVHEGLHNHHTTKSFSRTPGK	–	60.3 nM
